This note sets out measurements from a protein production outcome set (Wang et al. 2014).

This data set in a line: label from the status in PepcDB records.
On to “MTLYTNDYLEFYLTLVGWLINNGIWDMISDTGLFALPFLIIVVREWIKVRQEGADEGNKGVLSLARIETQLYIGYVVVSLCAIPVMSVGFDTLQFDQTRAKQCQVLLPAPGDTGWNTTFSSLTGKSARIPIWWAVMHSLSKGLNSGAVAAIPCGTDLRQMRMDVDAIRIDNPLLAQEVADFTHDCFGPSRARLFMRQPDLGAITKDPKTLQDLNWIGSRFLLNTSGYYDTDYSKTPRTAWPYDAKRDDGLPQVTGGGGYPTCKQWWSDGSIGLRDRLQAQVDPTLMNKLLGWAKWLSKDEVTDSMIRQVVSPSSQVNGDVYSDYGGQIGGTMWNGLARAGGTLGVGVGSLAYFPGMDIVRQALPMVMAFLKMAMVICLPLVLIIGAYQLKVAMTMSVVFFALIFVDFWFQLARWVDSTIIDVLYGSGSPHLSFDPVMGLNTTTQDAILNFVMGAMFIILPLFWMSALAWAGVQVSGVLEGLSRGTQSVERAGASGGGIAQQAVGSIGGKS”, for which the protein production entry is recorded as “failed”. With “MSNESETDVDEETADEEEQAEGLQKGDVVKLAYTARTVDGGQLVDTTDEEVAEDDGIDTEQQEFGPRTIVLGENHIFPDVEQDIYGKEVGDEGDVTVAAADAFGEYDEEEVRTVSKDKIPEDDRYPGAHVDLEGEHGHVETIIGGRARVDFNHPLAGEDVEYDYEVLEEVTDREEKAQGIIQMMLDMELDVWFETDTVEEEQLVESEDEDEDEESEPEYETVEVEKETLYIEATPQLTMNQQWMMGKQQIAQQLTQLLDIDRIIVQEEIGGGGMGMPGMMGGMGGAGGADIEDALEDADVDAEEIVEEIEGAEE”, the protein production result is reported as “failed”. Take “MAEILRAENIKKVIRGYEILKGISLSVKKGEFVSIIGASGSGKSTLLYILGLLDAPTEGKVFLEGKEVDYTNEKELSLLRNRKLGFVFQFHYLIPELTALENVIVPMLKMGKPKKEAKERGEYLLSELGLGDKLSRKPYELSGGEQQRVAIARALANEPILLFADEPTGNLDSANTKRVMDIFLKINEGGTSIVMVTHERELAELTHRTLEMKDGKVVGEITRV”: the protein production entry was “not failed”. For “LAYEELRQREAQTAMQLAVNNALLTIKDRSRMLLAVCEQIDKLVPCTFLGIRVMDRDGNFRIFDNFMRETPSGFFPVSAHEKLDVPDFAEMARESFSLITSPGCFSGEAFQLLCDKYRLVGLVREKFNICSLISVRLWDLPGSCAGLIISDTSRAFDEHDQETVGLIVPQLSLALQNYLAFEEIDKLRRKLEGEKAYLFEEIKATHD” the value was “failed”. As to “MFITFEGIDGSGKTTQSHLLAEYLSEIYGVNNVVLTREPGGTLLNESVRNLLFKAQGLDSLSELLFFIAMRREHFVKIIKPSLMQKKIVICDRFIDSTIAYQGYGQGIDCSLIDQLNDLVIDVYPDITFIIDVDINESLSRSCKNGYEFADMEFYYRVRDGFYDIAKKNPHRCHVITDKSETYDIDDINFVHLEVIKVLQMV”, the protein production entry was “not failed”.

Take “MRLDKFIAQQLGVSRAIAGREIRGNRVTVDGEIVRNAAFKLLPEHDVAYDGNPLAQQHGPRYFMLNKPQGYVCSTDDPDHPTVLYFLDEPVAWKLHAAGRLDIDTTGLVLMTDDGQWSHRITSPRHHCEKTYLVTLESPVADDTAEQFAKGVQLHNEKDLTKPAVLEVITPTQVRLTISEGRYHQVKRMFAAVGNHVVELHRERIGGITLDADLAPGEYRPLTEEEIASVV”: the protein production result is “not failed”. Take “MNQVEMTEFPVGKPEEALYGVASTPDGALWFTLAKGNAIGRLSPDGEVSRFPLPHADGQPTTITCGPDGRPWFTLSSANAVGRLSPDGALRMFELPRPASRPFGIAAGHDGCLWFAEMAGDRIGRITIDGDIEEYDLPVKGGYPSCMAAGRDGLMWFTLNQAGAIGSISATAAPRIFPLGAADAAPVGIASDAQGALWIAQAGNGAIARFDAGGRITEFPLHSRAARPHALAADAAGNLWFTEWGANRIGRISEAGDTAGYELAAPGSEPHGIAIDPHGCVWAALETGSLVRLQASPRD”: the protein production result is “failed”. “MLGTSFNNFGISLSHKRYFSGKVDEIIRCTMGKRIVKISSTKINTSILSSVSEQIGENITDWKNDEKKVYVSRVVNQCIDKFCAEHSRKIGDNLRKQIFKQVEKDYRISLDINAAQSSINHLVSGSSYFKKKMDELCEGMNRSVKNDTTSNVANLISDQFFEKNVQYIDLKKLRGNMSDYITNLESPFLEHHHHHH”: the protein production result is “failed”. As to “MEKYEELFARIKEKAKLIDEKIFELIPEKDPRVLYEAARHYPLAGGKRVRPFVVLTSTEAVGGDPLRAIYPAVAIELIHNYSLVHDDIMDMDETRRGKPTVHRIWGVNMAILAGDLLFSKAFEAVARAEIPPEKKARVLEVIVKASNELCEGQARDLEFEKKSTVTIEEYMEMISGKTGALFEASAKVGGIIGTDNEEYIKALSSWGRNVGIAFQIWDDVLDLIADEKKLGKPVGSDIRKGKKTLIVAHFFENADEKDKQRFLKIFGKYAGDVKGRGIIEEDIKSDVMEAIDLLKKYGSIDYAAEIAKDMIKKANEALRILPKSKARMDLELLAKFIVEREY”, the protein production entry is “not failed”. Then “MSSTKLIVLKSKELIYTAILLALIVVFVIILINMFKRNDKSDGSQSGPAKAVSAPADPGTGIYNTRYTPGTYSSPLILGENTLSVIVTVDDCQITDVSFQQMGETITTMYPLLESSLEDINTQLHYISSVDDIIPSGDSTYTTKLIIDSIKNALKEAVVN”, with “failed”; and “MKTVLAFGDSLTWGADPATGLRHPVEHRWPDVLEAELAGKAKVHPEGLGGRTTCYDDHAGPACRNGARALEVALSCHMPLDLVIIMLGTNDIKPVHGGRAEAAVSGMRRLAQIVETFIYKPREAVPKLLIVAPPPCVAGPGGEPAGGRDIEQS”, with “not failed”. For the sequence “MQESVVRVDYDSLETCKNFKPSVGTELIVLEKDIAHARFKGNESMVYEENFVHAGFVLIACNYAALCALNKRHSVVVSNNINFYAPLELNQEALIKAQVIQDGVKKAEIKIEAFVLDIQVLEGMIEIVVFDKKPFKFNFKEELEHHHHHH”, the protein production result is given as “failed”. Take “MITAFVLIRPRGNRVQALGEAIAELPQVAEVYSVTGPYDLVALVRLKDVEELDDVVTQGILSLEGVERTETLLAFRAYPRRLLDQGFALGQG”: the protein production result is given as “not failed”. “MGTETVVHDQARWAMAAMERRLAVAKAQLLQQQQQKNEKDKKGTSDVDVSMKESHQADSLPTPSKTSIKKVDPKDDDSVAYTKLSHPVDENLLATNVKFSSAKGTIVDKVLHNLLRSGDSAQKYLQGTKSVKLDNYILLDNFVQSRSSASGSKKASQKDSKRSKSRMSMKRLKKSGALHIPKDLQKFDLFKPMHGMWESYMMKLIKVTGKIQLSLTLLSADLHGAFMFGNPSFFHKSVVLGYDLLSLTHFPKLNFSQPILLVTVAECKIASFTGVQGIMVRETSETFGIITRDDKFRGILKLFSPIYLP”: the protein production result is “failed”.

As to “MNVNKPTTEKKLIDLNNDIIHNFDVSIVMSFYKRYTEFRKVLPHNAPYLQRNGIEVIIVLDDPDEKSELLMLLQNYPFINWKLIINERKHAPRNHASVLNVGLKHATKKYILQIDPEVEFLTDIIWQMRDAIEKYPMHYILAMMAYVPYEQELTENNIKELDFIPWGNLMVERNHLYKLHGYDETFITWGGEDNNMRARLDMSGIKKFILPEAKTIHREKNYDPNERSKRINKHSISDWRKMNYPSEAIANKDIWGSEFNKVIYDWQDNQYAKDLCYTYLQQFIGFEIRHPAAFRKRHKKIVLCQAYNEEKLIEGFLTNMANYFDGIILLDDESTDRTWDLAIHDKIILKVKKKRSGFNDLENRNILLDLSAFFQSEWFCFMDIDERFDERFTNFSEFENNKEIHVVSFRGVYLWNDEQSYKGDIPNSNKGILTVYRMFRPIGHTHINTHKKLHFIATPYFTNTWQSNILFKDYGSMKENDRIRKYERYIQEDQQKDMSSGYDYLLNSENLYQLDKIEEYLEHHHHHH”, the protein production entry is “failed”. As to “MDLSLSTRTVGDRTVVEVGGEIDVYTAPKLREQLVELVNDGNFHLVVDMEGVDFLDSTGLGVLVGGLKRVRAHEGSLRLVCNQERILKIFRITGLTKVFPIHTSVEEAVAATD”, the protein production result was “failed”.

Regarding “MVAIAQGLPHDLLAPAWQILILGDGSPTRHLQLLTGETTEVDVIDMSAIGHAGDRAPAQLQLIPGPRLRRQVWLRTASGQRLAYATSWWEAAHVDEYLQNRAMPIWTNLAQRKLELYRDIQAVYLGHSETLAAAFGEAGPFWGRHYLFWHDRRPITLIYEVFSPYLCRYLGPMGSTAYWANSALPFALEHHHHHH”, the protein production result is reported as “failed”. On to “MVKMIEQLKRSFAVAKKDMLIFYLKGPVIIMGLIFPFFLFLAFFIGRNLEKAQLFTALISMTAFFTSTAVGPTIIPWECRGRTFERLITAPVSLTTVLLGDLQASFYFGTAITFIISTVAIFILSIRPNLQIFLVATILAILTFSAMTILMSSYPPTDVPADIMMLSSLVKFSLLFISGIFVPLKDLPKYARWISYASPLTYYVDALRNSLGDGCLPLWIDFGMLALFGILFFLSGVAIHKKVLERRFT”, for which the protein production entry was “failed”. On to “MPSKQDVLLLDYWDQWAEAYRINGKSINTVYRYKLFRKHLKSRFDGRKLNSIRPIEWQKFINDFAAGKDRKEKTTRKRPRERSKDIVTKMNSYVRGMVKAAINERILFSDFTFGTKTSGVRSSGKVKVLEHHHHHH”, for which the protein production entry is reported as “not failed”. For “MAENKLGRDIPRKYANQYGVFEGELAHIKSYKESSRQVKPVKPSDDKLLSSIHEAIEKTRLKDGMTISFHHHFREGDYVMNMVLDEIAKMGIKDISIAPSSIANVHEPLIDHIKNGVVTNITSSGLRDKVGAAISEGIMENPVIIRSHGGRARAIATDDIHIDVAFLGAPSSDAYGNANGTRGKTTCGSLGYAMIDAKYADQVVIVTDTLVPYPNTPISIPQTDVDYIVVVDAIGDPEGIAKGATRYTKNPKELLIAEYAAKVITSSPYYKEGFSFQTGTGGASLAVTRFMREQMIKDDIKANFALGGITNAMVELLEEGLVDKILDVQDFDHPSAVSLDRNAEKHYEIDANMYASPLSKGSVINQLDICVLSALEVDTNFNVNVMTGSDGVIRGASGGHCDTAFAAKMSLVISPLVRGRIPTFVDKVNTVITPGTSVDVVVTEVGIAINPNRPDLIEYFKDLKVPQLTIEELKEKAYAIVGNPQPIQYGDKIVALIEYRDGSLIDVVRNVLEHHHHHH”, the protein production entry is recorded as “not failed”. Consider “MIPRVRAPELPQNYPWLNTEQPLSIKQLNGRVVILDFWTYCCINCLHVLPDLKYLEQKYKDSLTVIGVHSAKFDNEQETENIRQAILRYDIEHPVLVDKDFRVWQEYAVRAWPTLMVIDPKGYVIGYVSGEGNRDKLDQLITQVIQEHQGAINFQQLSLTLEKQRQPLITPLAFPGKVLATPSGLFVADSGHHRIVVSDFNGEILHLIGNGKSGLTDGNFQEAQFSAPQGMAFDMENQILYLADTENHALRRVDINQQTVETIAGTGEQSRNIQPHGGVGLETALNSPWDLVNIENSLYIAMAGVHQIWQMDLASGVIKTYAGTGVEACLDASLTESAFAQPSGITNNEQELYIADSEISSIRGVGLVEPQEVRTVCGSGGLFGFGDVDGQGEDVRLQHCLGVEYFQNYLWVADTYNHKIKSVSPHTGNCQTVLGDGLAGLQNGQGKNTRFFEPSGLSAIDSYLYISDTNNHVIRRVDLRTLEVTTMQFNGLCAPDVCIPNNFLEHHHHHH”, for which the protein production entry is given as “failed”.
